From patent US20190300590A1 (PROTAGONIST THERAPEUTICS, published 2019)
*1 amine or outer side, *2 acyl side, *3 side chain or, on linkers, in order; H or OH if unused. Bridges are numbered along the chain shown (N, C = ends). Primed or numbered codes have the meaning given here. [ ]: non-standard residue; d: D form. Phe(4-OMe)(3) = O-methyl-L-tyrosine (4-methoxy-L-phenylalanine), COc1ccc(C[C@H](N[*:1])C(=O)[*:2])cc1; Phe(4-OMe)(5) = O-methyl-L-tyrosine (4-methoxy-Phe), COc1ccc(C[C@H](N[*:1])C(=O)[*:2])cc1; Phe(4-OMe)(4) = O-methyl-L-tyrosine, COc1ccc(C[C@H](N[*:1])C(=O)[*:2])cc1; Phe(3,4-(OMe)2) = COc1ccc(C[C@H](N)C(=O)O)cc1OC; Phe(4-CF3) = N[C@@H](Cc1ccc(C(F)(F)F)cc1)C(=O)O; Phe(4-tBu) = CC(C)(C)c1ccc(C[C@H](N)C(=O)O)cc1; Bip = N[C@@H](Cc1ccc(-c2ccccc2)cc1)C(=O)O; 2Nal = N[C@@H](Cc1ccc2ccccc2c1)C(=O)O; Ala(cPent) = N[C@@H](CC1CCCC1)C(=O)O; AEF = NCCOc1ccc(C[C@H](N)C(=O)O)cc1; Gly(octyl) = CCCCCCCC[C@H](N)C(=O)O; hArg = N=C(N)NCCCC[C@H](N)C(=O)O; Cav = NC(N)=NOCC[C@H](N)C(=O)O; αMeL = CC(C)C[C@](C)(N)C(=O)O; Pen = CC(C)(S)[C@H](N)C(=O)O; hLeu = CC(C)CC[C@H](N)C(=O)O; αMeK = C[C@](N)(CCCCN)C(=O)O; αMeS = C[C@](N)(CO)C(=O)O; Iva = CC[C@](C)(N)C(=O)O; Orn = NCCC[C@H](N)C(=O)O; Abu = CC[C@H](N)C(=O)O; Dap = NC[C@H](N)C(=O)O; Aib = CC(C)(N)C(=O)O; AEA = NCCOCC(=O)O

T1: IL23R_huFC (human, UniProt Q5VWK5 24-353)
T1 sequence (looked up): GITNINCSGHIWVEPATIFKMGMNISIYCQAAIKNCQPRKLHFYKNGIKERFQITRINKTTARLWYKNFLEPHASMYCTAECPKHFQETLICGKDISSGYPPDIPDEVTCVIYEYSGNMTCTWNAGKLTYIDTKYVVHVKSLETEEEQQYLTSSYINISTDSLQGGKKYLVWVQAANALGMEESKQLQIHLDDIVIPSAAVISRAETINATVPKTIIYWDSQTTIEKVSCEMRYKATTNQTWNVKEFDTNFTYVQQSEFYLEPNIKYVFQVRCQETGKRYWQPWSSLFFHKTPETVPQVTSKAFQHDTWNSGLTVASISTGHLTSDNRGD

T2: IL23R_huFC (human, UniProt Q5VWK5 24-353)
T2 sequence (looked up): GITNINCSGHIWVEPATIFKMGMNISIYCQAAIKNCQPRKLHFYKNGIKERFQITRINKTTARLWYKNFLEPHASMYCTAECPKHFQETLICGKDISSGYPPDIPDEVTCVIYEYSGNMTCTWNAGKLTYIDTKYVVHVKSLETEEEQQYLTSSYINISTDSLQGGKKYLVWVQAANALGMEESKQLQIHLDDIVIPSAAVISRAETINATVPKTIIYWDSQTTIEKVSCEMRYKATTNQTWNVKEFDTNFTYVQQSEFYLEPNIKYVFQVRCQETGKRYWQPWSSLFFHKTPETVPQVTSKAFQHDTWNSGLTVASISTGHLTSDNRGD

T3: IL-23R on human cells (IL-23R-expressing DB cells; human NK cells) (human, UniProt Q5VWK5 24-629)
T3 sequence (looked up): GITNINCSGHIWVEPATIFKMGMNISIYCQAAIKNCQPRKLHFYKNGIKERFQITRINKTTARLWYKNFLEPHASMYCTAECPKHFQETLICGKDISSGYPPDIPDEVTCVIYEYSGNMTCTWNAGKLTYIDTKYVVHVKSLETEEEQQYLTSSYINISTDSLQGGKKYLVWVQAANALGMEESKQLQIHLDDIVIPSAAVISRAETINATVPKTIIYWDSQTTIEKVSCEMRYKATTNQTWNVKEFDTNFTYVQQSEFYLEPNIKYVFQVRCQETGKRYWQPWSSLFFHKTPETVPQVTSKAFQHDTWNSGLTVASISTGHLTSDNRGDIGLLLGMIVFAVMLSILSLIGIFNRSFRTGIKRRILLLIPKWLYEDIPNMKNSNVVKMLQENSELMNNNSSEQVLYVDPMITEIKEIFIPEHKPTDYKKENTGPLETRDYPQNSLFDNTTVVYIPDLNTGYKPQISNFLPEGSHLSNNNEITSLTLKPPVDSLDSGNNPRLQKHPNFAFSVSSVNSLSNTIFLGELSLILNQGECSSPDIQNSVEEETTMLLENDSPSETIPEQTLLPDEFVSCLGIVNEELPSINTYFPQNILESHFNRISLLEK


Legend:
IL23R_huFC [1] = target: T1, IL23R_huFC; experiment: IL23-IL23R competitive ELISA
IL23R_huFC [2] = target: T2, IL23R_huFC; experiment: human ELISA vs IL-23
[3] = target: T3, IL-23R on human cells …; experiment: cell-based or functional assay

Binder	IC50 (IL23R_huFC [1])	IC50 (IL23R_huFC [2])	pStat3 HTRF IC50 [3]
H-CRTWQCYWRKFG-NH2 (disulfide 1-6 (inferred)) [Hy-CRTWQCYWRKFG-NH2]	< 500 nM	–	–
Ac-CQTWQCYW[Ala(cPent)]ENG-NH2 (disulfide 1-6 (inferred)) [Ac-CQTWQCYW-[Cpa]-ENG-NH2]	< 500 nM	–	–
XQTWQCFXKXNG (as bracketed in name; thioether cyclo) [Ac-Cyclo-[[Abu]-QTWQC]-[Phe[4-(2-aminoethoxy)]]-[2-Nal]-[α-MeLys]-[Orn]-NG-NH2]	–	< 10 nM	< 10 nM
Ac-CADWVCYWHTFGER-NH2 (disulfide 1-6 (inferred)) [Ac-CADWVCYWHTFGER-NH2]	< 500 nM	–	–
Ac-[Abu]QTWQC[AEF]W[αMeK]K(Ac)[Dap]G-NH2 (thioether 1-6) [Ac-Cyclo-[[Abu]-QTWQC]-[Phe[4-(2-aminoethoxy)]]-W-[α-MeLys]-[Lys(Ac)]-[Dap]-G-NH2]	–	> 1000 nM	–
Ac-[Abu]TTWQC[AEF][2Nal][αMeK]ENG-NH2 (thioether 1-6) [Ac-Cyclo-[[Abu]-TTWQC]-[Phe[4-(2-aminoethoxy)]]-[2-Nal]-[α-MeLys]-ENG-NH2]	–	< 10 nM	< 10 nM
Ac-[Abu]QTWQC[AEF][2Nal][αMeK][hArg]NG-NH2 (thioether 1-6) [Ac-Cyclo-[[Abu]-QTWQC]-[Phe[4-(2-aminoethoxy)]]-2-Nal]-[α-MeLys]-hRNG-NH2]	–	< 10 nM	< 10 nM
Ac-[Abu]QTWQC[AEF][2Nal][Iva]K(Ac)NG-NH2 (thioether 1-6) [Ac-Cyclo-[[Abu]-QTWQC]-[Phe[4-(2-aminoethoxy)]]-[2-Nal]-[α-Me-Gly(Ethyl)]Lys(Ac)]-NG-NH2]	–	< 10 nM	< 10 nM
Ac-[Abu]QTWQC[Gly(octyl)][2Nal][αMeK]K(Ac)NG-NH2 (thioether 1-6) [Ac-Cyclo-[[Abu]-QTWQC]-[Octgly]-[2-Nal]-[α-MeLys]-[Lys(Ac)]-NG-NH2]	–	~10000 nM	–
Ac-[Abu]QTWQ[dC]YW[hLeu]ENG-NH2 (thioether 1-6) [Ac-Cyclo-[Abu]-QTWQ-(D)Cys]]-YW-[hLeu]-ENG-NH2]	–	> 1000 nM	–
Ac-CEDWKCYWHKYG-NH2 (disulfide 1-6 (inferred)) [Ac-CEDWKCYWHKYG-NH2]	< 500 nM	–	–
Ac-DTPRCRTWECYWHTFG-NH2 (disulfide 5-10 (inferred)) [Ac-DTPRCRTWECYWHTFG-NH2]	< 500 nM	–	–
Ac-CQTWECYWHLYG-NH2 (disulfide 1-6 (inferred)) [Ac-CQTWECYWHLYG-NH2]	< 500 nM	–	–
Ac-[Abu]QTWQC[AEF][2Nal][Aib]K(Ac)NG-NH2 (thioether 1-6) [Ac-Cyclo-[[Abu]-QTWQC]-[Phe[4-(2-aminoethoxy)]]-[2-Nal]-[Aib]-[Lys(Ac)]-NG-NH2]	–	< 10 nM	< 10 nM
CQTWQCYWRXNGXK (Ac-; [Dapa]; [AEA]; [(D)-Lys]; -NH2; disulfide) [Ac-CQTWQCYWR-[Dapa]-NG-[AEA]-[(D)-Lys]-NH2]	< 500 nM	–	–
Ac-CQTWQCYWR[Orn]NG[AEA][dK]-NH2 (disulfide 1-6; SMILES CC(=O)N[C@H]1CSSC[C@@H](C(=O)N[C@@H](Cc2ccc(O)cc2)C(=O)N[C@@H](Cc2c[nH]c3ccccc23)C(=O)N[C@@H](CCCNC(=N)N)C(=O)N[C@@H](CCCN)C(=O)N[C@@H](CC(N)=O)C(=O)NCC(=O)NCCOCC(=O)N[C@H](CCCCN)C(N)=O)NC(=O)[C@H](CCC(N)=O)NC(=O)[C@H](Cc2c[nH]c3ccccc23)NC(=O)[C@H]([C@@H](C)O)NC(=O)[C@H](CCC(N)=O)NC1=O) [Ac-CQTWQCYWR-[Orn]-NG-[AEA]-[(D)-Lys]-NH2]	< 500 nM	–	–

Second part, the binder after the results:

IC50 (IL23R_huFC [1])	IC50 (IL23R_huFC [2])	pStat3 HTRF IC50 [3]	Binder
< 500 nM	–	–	Ac-CADWVCYWHRHADRVK-NH2 (disulfide 1-6 (inferred)) [Ac-CADWVCYWHRHADRVK-NH2]
< 500 nM	–	–	Ac-CADWVCYWHTHGER-NH2 (disulfide 1-6 (inferred)) [Ac-CADWVCYWHTHGER-NH2]
–	> 1000 nM	–	Ac-[Abu]QTWQ[Pen]YW[hLeu]ENG-NH2 (thioether 1-6) [Ac-Cyclo-[[Abu]-QTWQ-[Pen]]-YW-[hLeu]-ENG-NH2]
–	~3000 nM	–	Ac-[Abu]QT[Phe(3,4-(OMe)2)]QC[AEF][2Nal][αMeK]ENG-NH2 (thioether 1-6) [Ac-Cyclo-[[Abu]-QT-[Phe(3,4-OMe)]-QC]-[Phe[4-(2-aminoethoxy)]]-[2-Nal]-[α-MeLys]-ENG-NH2]
–	< 10 nM	< 10 nM	Ac-[Abu]QTWQC[AEF][2Nal][αMeS]K(Ac)NG-NH2 (thioether 1-6) [Ac-Cyclo-[[Abu]-QTWQC]-[Phe[4-(2-aminoethoxy)]]-[2-Nal]-[α-MeSer]-[Lys(Ac)]-NG-NH2]
–	~3000 nM	–	Ac-[Abu]QT[Phe(4-CF3)]QC[AEF][2Nal][αMeK]ENG-NH2 (thioether 1-6) [Ac-Cyclo-[[Abu]-QT-[Phe(4-CF3)]-QC]-[Phe[4-(2-aminoethoxy)]]-[2-Nal]-[α-MeLys]-ENG-NH2]
–	< 10 nM	< 10 nM	Ac-[Abu]QTWQC[AEF][2Nal][αMeK]QNG-NH2 (thioether 1-6) [Ac-Cyclo-[[Abu]-QTWQC]-[Phe[4-(2-aminoethoxy)]]-[2-Nal]-[α-MeLys]-QNG-NH2]
–	~10000 nM	–	Ac-[Abu]QTYQC[Phe(4-OMe)(5)][2Nal][αMeK]K(Ac)NG-NH2 (thioether 1-6) [Ac-Cyclo-[[Abu]-QTYQC]-[Phe(4-OMe)]-[2-Nal]-[α-MeLys]-[Lys(Ac)]-NG-NH2]
–	< 10 nM	< 10 nM	Ac-[Abu]QTWQC[AEF][2Nal][αMeK]NNG-NH2 (thioether 1-6) [Ac-Cyclo-[[Abu]-QTWQC]-[Phe[4-(2-aminoethoxy)]]-[2-Nal]-[α-MeLys]-NNG-NH2]
–	> 1000 nM	–	Ac-[Abu]QTWQC[Phe(4-OMe)(3)][Phe(4-tBu)][αMeK]ENG-NH2 (thioether 1-6) [Ac-Cyclo-[[Abu]-QTWQC]-[Phe(4-OMe)]-[Phe(4-tBu)]-[α-MeLys]-ENG-NH2]
–	< 10 nM	< 10 nM	Ac-[Abu]QTWQC[AEF]W[αMeL]ENG-NH2 (thioether 1-6) [Ac-Cyclo-[[Abu]-QTWQC]-[Phe[4-(2-aminoethoxy)]]-W-[α-Me-Leu]-ENG-NH2]
–	~10000 nM	–	Ac-[Abu]QTWQC[Phe(4-OMe)(3)][Gly(octyl)][αMeK]K(Ac)NG-NH2 (thioether 1-6) [Ac-Cyclo-[[Abu]-QTWQC]-[Phe(4-OMe)]-[Octgly]-[α-MeLys]-[Lys(Ac)]-NG-NH2]
–	~10000 nM	–	Ac-[Abu]QT[Bip]QC[Phe(4-OMe)(4)][2Nal][αMeK]K(Ac)NG-NH2 (thioether 1-6) [Ac-Cyclo-[[Abu]-QT-[Bip]-QC]-[Phe(4-OMe)]-[2-Nal][α-MeLys]-[Lys(Ac)]-NG-NH2]
–	< 10 nM	< 10 nM	Ac-[Abu]TWQC[AEF][2Nal][αMeK]ENG-NH2 (thioether 1-5) [Ac-Cyclo-[[Abu]-TWQC]-[Phe[4-(2-aminoethoxy)]]-[2-Nal]-[α-MeLys]-ENG-NH2]
–	< 10 nM	< 10 nM	Ac-[Abu]QTWQC[AEF][2Nal][αMeK]K(Ac)NG[AEA][dK]-NH2 (thioether 1-6) [Ac-Cyclo-[[Abu]-QTWQC]-[Phe[4-(2-aminoethoxy)]]-[2-Nal][α-MeLys]-[Lys(Ac)]--NG-[AEA]-[(D)Lys]-NH2]
< 500 nM	–	–	Ac-CQTWQCYW[Cav]ENG-NH2 (disulfide 1-6 (inferred)) [Ac-CQTWQCYW-[Cav]-ENG-NH2]
–	< 10 nM	< 10 nM	Ac-[Abu]QTWQC[AEF][2Nal][Aib]KNG-NH2 (thioether 1-6) [Ac-Cyclo-[[Abu]-QTWQC]-[Phe[4-(2-aminoethoxy)]]-[2-Nal]-[Aib]-KNG-NH2]
–	< 10 nM	< 10 nM	XQTWQCFXXKNG (as bracketed in name; thioether cyclo) [Ac-Cyclo-[[Abu]-QTWQC]-[Phe[4-(2-aminoethoxy)]]-[2-Nal]-[α-Me-Orn]-[Lys(Ac)]-NG-NH2]
